Reference: patent US20250034594A1, “RNA-GUIDED GENOME RECOMBINEERING AT KILOBASE SCALE” (THE BOARD OF TRUSTEES OF THE LELAND STANFORD JUNIOR …, priority 2021, published 2025)

B1: SSAP_135: SEQ ID NO: 304; Amycolatopsis arida (protein, listed as Amycolatopsis arida)
chain: HGTALNPERFTRVALTVIRQSADLQRCRPESLLGALMTSAQLGLEPGPLGEAYLVPYGDQVTFIPGYRGLIKLAWQSGQLRHISARVVHEGDRFSYSYGLHPDLIHQPTRGDRGPITDVYAAATLIDGGVEFEVLDVATVETIRARSRAGRKGPWVTDWEAMARKTAIRQLAKWLPMATVMSRAIAAEGTVRTDLDADALDDLTADPGPEVLDADPAWDGPEPPGDQARNQEPTTQGDA
B2: SSAP_93: SEQ ID NO: 262; Morganella morganii (protein, listed as Morganella morganii)
chain: SNPPIAQADLQKAQGTAVKEKTKDQQLIQFINQPGMKAQLAAALPRHITPDRMIRIVTTEIRKTPSLATCDMQSFIGAVVQCSQLGLEPGNALGHAYLLPFGNGKAASGQSNVQLIIGYRGMIDLARRSGQIISISARTVREGDSFHFEYGLNEDLTHVPGENDSGPITHVYAVARLKEGGVQFEVMSFSQIEKVRDSSKAGKNGPWVSHWEEMAKKTVIRRLFKYLPVSIEMQRAVILDEKAEANVDQEHASIFEGEYETVSPE
B3: SSAP_75: SEQ ID NO: 244 (protein)
chain: ANELGIFSVDNLNMTTIKQYLDGGGKASDAELVLLINLCKQNNMNPFMKEVYFIKYGNQPAQIVVSRDFYRKRAFQNPNFAGIEVGVIVLNKDGVLEHNEGTFKTHEQELVGAWARVHLKNTEIPVYVAVSYDEYVQMKDGHPNKMWTNKPCTMLGKVAESQALRMAFPAEFSGTYGEEELPEPEKEPREVNGVKEPDRAQIESFDKEDYAAKKIEELKEKAQPQKEVVKETGEVIDKITAEDF
B4: SSAP_302: SEQ ID NO: 471; Clostridium saccharobutylicum (protein, listed as Clostridium saccharobutylicum)
chain: ATNSSLKNQLIEKEQTTVNVQETMFKNLINSDDVKSKFTEVLKDKAIQYINSIINLVNSDKDLIECEPKSIIDACMSAVSLDLSVDKNLEYVEIIPYKKKANFQLGYRGYIQLLLRTGEYKSVNIIEVYEGQLKSWNQLAEEFDIDFTYKKSDAVIGYAGYFEMLNGFRKSVYWSKENMDALRENSFKSDTRWNNDYKAMAKRAVIRNMISKWGSLSIEMEKAYCEDLNTDKFVNGN
B5: SSAP_153: SEQ ID NO: 322; Staphylococcus intermedius (protein, listed as Staphylococcus intermedius)
chain: ANANSFKEQVSKNEVQETNNEKPKGPRQQVSDLLERMAPEIQKALPSHMSAERMARIAMTAISSNPQLLECNPRSLIGALLQASQIGLEPNTALGQAYLIPYYNHKKKEFEAQLQLSYLGLIELATRTGQYKAIYAHEVYKEDEFYYEYGLHKNLVHKPVDDPNGEPVGYYAVYHLQNGGFDFAYWTKNKIELHAGNYSKAVQKGWNSPWKTDFNAMAKKTVLKDLLKYAPKSIEISQAVGSDSKVTEINKQGEIIDITEYGQEALEG
B6: SSAP_143: SEQ ID NO: 312; Staphylococcus chromogenes (protein)
chain: ANAKEFKKQMNSKNEVAETNNAPQKAKGPRQQVSDLLDRMAPEIQKALPNNMSAERMARIAMTAVSSNPKLLECDPKSFIGALMQASQIGLEPNTALGQAYLIPYGNQVQLQLSYLGLIELATRTGQYKAIYAHEVYKDDEFSYEYGLYKNLIHKPVDDPNGEPIGYYAVYHLMNGGYDFAYWTRKKVEAHAQQYSKAVQQGWNSPWKSDFNAMAKKTVLKDLLKYAPKAIEVSQAIGSDSKVSEINDEGEIIDVTDYSQEEEK
modifications: Staphylococcus chromogenes
B7: SSAP_92: SEQ ID NO: 261; Edwardsiella piscicida (protein, listed as Edwardsiella piscicida)
chain: TNNQQPPIATADLQKAQSQAPAVKPDQKLINFINQPSMKGQIAAALPRHMAPDRMIRIITTEIRKTPALATCDMQSFIGSVVQCSQLGLEPGGALGHAYLLPFGNGKAKSGQSNVQLIIGYRGMIDLARRSGQIVSISARTVRDGDQFHYEYGLDETLKHVPGDNESSPITHVYAVAKLKDGGVQFEVMTFNQIEKVRGQSKAGNNGPWQTHWEEMAKKTVIRRLFKYLPVSIEMQKAVILDEKAEANIDQENASVISAEFSVVED
B8: SSAP_295: SEQ ID NO: 464; Pseudoalteromonas (multispecies) (protein, listed as Pseudoalteromonas sp.)
chain: SLSLQEYQNLLYGKLTACKGQFDACLSENGYKLDFNTELNYVYQIVMSGLNVEYSFPYTPVESVITSFLKAAKIGLSLCPTEQLCFLKTEYSESSGQYVTQLGLGYKGILKLAYRSGKVKQINANVFYEKDNFQYNGVNSKVTHTTTVLSKAMRGQLAGGYCQTELIDGSFKTTVMPPEEILAIEEQGKAMGNEAWLSVHVDQMREKTLIKRHWKTLCPCIYRDSVMNDPMLFDDQDCQHSSNQQAYEEQFESAYSREAY
B9: SSAP_223: SEQ ID NO: 392; Haloactinospora alba (protein, listed as Haloactinospora alba)
chain: GQSVTNAVAQRDTSPSGMVGKYRDDFAQVMPSHVNGAGWVRIAQGILRRDAKLAEAARNAPQSLMSALMDAAQQGLTPGTTEFYLVPRKRKGSLEVQGITGYQGEIELIYRAGAVASVVAEIVHEHDTFEWIPGKHERPIHEADWFGNRGTMVGAYAYAVMNSGSTSKVVILNQHDIEKARAMSDGADSSYSPWQKWPESMWLKTAAHRLAKWVPTSAEYRHEQERARARSEDTEIPASPDSDVVHAEIVEENDDEQAT
B10: SSAP_296: SEQ ID NO: 465; Peptostreptococcaceae bacterium VA2 (protein)
chain: QPFLVQRYPHLDVVLNDQVHVLKSFFFQNHIILYLYKYIECLQIFHKPLLKGDRGKVIGYYAVYHLEPNGYNFVFMTYDEVKNHGKKYSKNFEGGIWEKEFDSMAKKTVIKKLLKYAPLSIEMQKAVTFDESVKGSIDNDMLLVESIEDVEEIQLDTNI
modifications: Peptostreptococcaceae bacterium VA2

The molecules below were run on gene editing with Cas9 (assay: Screen of 322 new SSAP proteins, gene editing activity with Cas9 (Table 5)). Details: not given.
Assay type: cell-based
Set-up: Cas9 with SSAP activity: scale not given here
Outline: (§1)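 Sequence-mined SSAPs (n=322), synthesized; editing activity screened with Cas9 or dCas9.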

Row | Molecule | Cas9 with SSAP activity
1 | B1 | −1.283
2 | B2 | 0.714
3 | B3 | 0.284
4 | B4 | −0.842
5 | B5 | −2.201
6 | B6 | −0.553
7 | B7 | 2.341
8 | B8 | −2.337
9 | B9 | 0.236
10 | B10 | 0.244

Same assay, conditions: normalized

Row | Molecule | Cas9 with SSAP activity (normalized)
11 | B1 | −0.722
12 | B2 | 1.299
13 | B3 | 0.225
14 | B4 | −0.289
15 | B5 | −0.296
16 | B6 | −1.314
17 | B7 | 2.795
18 | B8 | −0.343
19 | B9 | 0.173
20 | B10 | 0.617

The molecules below were run on gene editing with dCas9 (assay: Screen of 322 new SSAP proteins, gene editing activity with dCas9 (Table 5)). Details: not given.
Assay type: cell-based
Set-up: dCas9 with SSAP activity: scale not given here
Outline: as §1

Row | Molecule | dCas9 with SSAP activity
21 | B1 | −1.826
22 | B2 | −2.015
23 | B3 | −1.658
24 | B4 | −1.946
25 | B5 | −1.534
26 | B6 | −1.842
27 | B7 | −1.516
28 | B8 | −2.038
29 | B9 | −1.928
30 | B10 | −1.749

Same assay, conditions: normalized

Row | Molecule | dCas9 with SSAP activity (normalized)
31 | B1 | −2.544
32 | B2 | −0.557
33 | B3 | −0.897
34 | B4 | −0.772
35 | B5 | −0.179
36 | B6 | −1.900
37 | B7 | −0.177
38 | B8 | −0.267
39 | B9 | −0.948
40 | B10 | −0.598

These molecules were tested on gene editing with Cas9 and dCas9 (assay: Screen of 322 new SSAP proteins, activity across all experiments (Cas9 and dCas9, Table 5)). Details: not given.
Assay type: cell-based
Set-up: scale not given here
Outline: as §1

Row | Molecule | Activity across all experiments
41 | B1 | −1.554
42 | B2 | −0.650
43 | B3 | −0.687
44 | B4 | −1.394
45 | B5 | −1.867
46 | B6 | −1.198
47 | B7 | 0.412
48 | B8 | −2.188
49 | B9 | −0.846
50 | B10 | −0.753
